Measurements from article PMC7718874 (2020).
Numbering of substitutions follows the chain as printed. Where no end group is shown, it is not given here. Me3 = trimethyl-lysine; Me2 = dimethyl-lysine

B1: unmodified H3K4 peptide (peptide)
chain: ARTKQTARKSTGGKA
modifications: zinc-bound PHD finger; limits from the UniProt ZN_FING feature, construct limits not printed unmodified Lys4; H3 1-15 assumed by convention
B2: AIPP3-BAH domain (residues 112-279) (domain or fragment)
chain: GKGKGKRTHFNQFAYDGNTYDLEVPVLLVPEDKSQKPYVAIIKDITQTKDGSMMILGQWFYRPEEAEKRGGGNWQSSDTRELFYSFHRDEVPAESVMHRCVVYFVPAHKQLPKRKNNPGFIVRKVYDTVEKKLWKLTDKDYEDSKQREIDVLVKKTMNVLGDLPDLES
B3: PAIPP2-PHD finger (domain or fragment)
chain: VKVCDICGDAGREDLLAICSGCSDGAEHTYCMREMLDEVPEGDWLCEECAEE

What was measured:
Assay in all cases: ITC
AIPP3-BAH domain Y149A = target: T1, AIPP3-BAH domain Y149A (Arabidopsis, UniProt Q8RXT5 112-279, Y149A)
T1 sequence: B2 chain with Y38A

AIPP3-BAH domain H198A = target: T2, AIPP3-BAH domain H198A (Arabidopsis, UniProt Q8RXT5 112-279, H198A)
T2 sequence: B2 chain with H87A

[1] = target: B2
AIPP3-BAH domain D200A = target: T3, AIPP3-BAH domain D200A (Arabidopsis, UniProt Q8RXT5 112-279, D200A)
T3 sequence: B2 chain with D89A

AIPP3-BAH domain W170A = target: T4, AIPP3-BAH domain W170A (Arabidopsis, UniProt Q8RXT5 112-279, W170A)
T4 sequence: B2 chain with W59A

PAIPP2-PHD finger = target: B3
H3K27me2 = target: T5, H3K27me2 (Arabidopsis thaliana, also: biotinylated in pull-down)
T5 chain: LATKAARK(Me2)SAPATGGVKK

H3K27me1 = target: T6, H3K27me1 (Arabidopsis thaliana, also: biotinylated in pull-down)
T6 chain: LATKAARK(Me)SAPATGGVKK

H3K4me2 = target: T7, H3K4me2 (Arabidopsis thaliana)
T7 chain: ARTK(Me2)QTARKSTGGKA

H3K4me1 = target: T8, H3K4me1 (Arabidopsis thaliana)
T8 chain: ARTK(Me)QTARKSTGGKA

LATKAARK(Me3)SAPATGGVKK [H3K27me3 peptide]
Kd (AIPP3-BAH domain Y149A): 19.8 µM | Kd (AIPP3-BAH domain H198A): 17.4 µM | Kd [1]: 7.4 µM | Kd (AIPP3-BAH domain D200A): 34.1 µM | Kd (AIPP3-BAH domain W170A): 28.5 µM

B1
Kd (PAIPP2-PHD finger): 18.6 µM

ARTK(Me3)QTARKSTGGKA [H3K4me3 peptide]
Kd [1]: 24.3 µM

ARTKQTARKSTGGKA (dimethyl-lysine at K9) [H3K9me2 peptide]
Kd [1]: 17.3 µM

B2
Kd (H3K27me2): 17.1 µM | Kd (H3K27me1): 24.2 µM

B3
Kd (H3K4me2): 30 µM | Kd (H3K4me1): 22.1 µM
